Measurements reported in PMC2756985 (Biochemistry, 2009).
Read-outs that look alike come from different tables or passages of the source.

What was measured:
[1] = cited from earlier work
[2] = cited from earlier work; remark: listed apart in the source
[3] = cited from earlier work; remark: listed apart in the source
[4] = Oxygen dissociation rates of DevS proteins, stopped flow; assay type: binding, Mycobacterium tuberculosis; conditions: read-out: O2 Kd; from koff and kon
[5] = Autooxidation of oxy-ferrous DevS proteins to the ferric; assay type: physicochemical, Mycobacterium tuberculosis; conditions: for autooxidation rate k / autooxidation t1/2: 25 °C
[6] = Oxygen association rates of DevS proteins, laser flash photolysis; assay type: binding, Mycobacterium tuberculosis; conditions: pH 7.5 phosphate buffer (20 mM), 200 mM NaCl, 1 mM EDTA
[7] = test system: DevS kinase; conditions: cited from earlier work
[8] = CO association and dissociation kinetics of DevS proteins, stopped flow; assay type: binding, Mycobacterium tuberculosis; conditions: 4 °C; for Kd: read-out: CO Kd, from koff and kon; for CO koff / CO kon: stopped flow; for CO koff: displacement with air saturated buffer or NO solutions; for CO kon: phosphate buffer (50 mM) pH 7.5, 200 mM NaCl, 1 mM EDTA
[9] = phosphate buffer (50 mM), pH 7.5, 1 mM EDTA and 200 mM NaCl
[10] = ferrous unligated form (5c complex)
[11] = ligand binding: O2 (oxy ferrous 6c species)
[12] = CaCl2 0.1 mM, hepes buffer (20 mM), pH 7.5, Chelex 100
[13] = CuCl2 10 µM, hepes buffer (20 mM), pH 7.5, Chelex 100
[14] = FeCl3 0.1 mM (nominal), hepes buffer (20 mM), pH 7.5, Chelex 100
[15] = KCl 200 mM, hepes buffer (20 mM), pH 7.5, pretreated with Chelex 100
[16] = MgCl2 1 mM, hepes buffer (20 mM), pH 7.5, Chelex 100
[17] = NaCl 200 mM, hepes buffer (20 mM), pH 7.5, Chelex 100

B1: BjFixL: FixL gas sensor kinase (literature comparator) (protein, UniProt P23222 1-505, looked up)
Sensor protein FixL: MAPTRVTHPPDDGRGEHFRVRIEGFGVGTWDLDLKTWALDWSDTARTLLGIGQDQPASYDLFLSRLEPDDRERVESAIKRVSERGGGFDVSFRVAGTSNAGQWIRARAGLIRDEAGTARHLSGIFLDIDEEKQVEGALRTRETHLRSILHTIPDAMIVIDGHGIIQLFSTAAERLFGWSELEAIGQNVNILMPEPDRSRHDSYISRYRTTSDPHIIGIGRIVTGKRRDGTTFPMHLSIGEMQSGGEPYFTGFVRDLTEHQQTQARLQELQSELVHVSRLSAMGEMASALAHELNQPLAAISNYMKGSRRLLAGSSDPNTPKVESALDRAAEQALRAGQIIRRLRDFVARGESEKRVESLSKLIEEAGALGLAGAREQNVQLRFSLDPGADLVLADRVQIQQVLVNLFRNALEAMAQSQRRELVVTNTPAADDMIEVEVSDTGSGFQDDVIPNLFQTFFTTKDTGMGVGLSISRSIIEAHGGRMWAESNASGGATFRFTLPAADEN
- O2 koff [1]: 20 s⁻¹
- O2 kon [1]: 145000 M⁻¹ s⁻¹
- Kd ([1]; read-out: O2 Kd): 138 µM
- CO koff [2]: 0.045 s⁻¹
- CO kon [2]: 5000 M⁻¹ s⁻¹
- Kd ([2]; read-out: CO Kd): 9 µM
- autooxidation rate k ([3]; pH7, 37 °C): 2.8 h⁻¹
- autooxidation t1/2 ([3]; pH7, 37 °C): 0.25 h

B2: full-length Y171F DevS (protein, UniProt P9WGK3 1-578, looked up, variant Y171F)
chain: MTTGGLVDENDGAAMRPLRHTLSQLRLHELLVEVQDRVEQIVEGRDRLDGLVEAMLVVTAGLDLEATLRAIVHSATSLVDARYGAMEVHDRQHRVLHFVYEGIDEETVRRIGHLPKGLGVIGLLIEDPKPLRLDDVSAHPASIGFPPYHPPMRTFLGVPVRVRDESFGTLFLTDKTNGQPFSDDDEVLVQALAAAAGIAVANARLYQQAKARQSWIEATRDIATELLSGTEPATVFRLVAAEALKLTAADAALVAVPVDEDMPAADVGELLVIETVGSAVASIVGRTIPVAGAVLREVFVNGIPRRVDRVDLEGLDELADAGPALLLPLRARGTVAGVVVVLSQGGPGAFTDEQLEMMAAFADQAALAWQLATSQRRMRELDVLTDRDRIARDLHDHVIQRLFAIGLALQGAVPHERNPEVQQRLSDVVDDLQDVIQEIRTTIYDLHGASQGITRLRQRIDAAVAQFADSGLRTSVQFVGPLSVVDSALADQAEAVVREAVSNAVRHAKASTLTVRVKVDDDLCIEVTDNGRGLPDEFTGSGLTNLRQRAEQAGGEFTLASVPGASGTVLRWSAPLSQ
modifications: full-length
- Kd [4]: 0.12 µM
- autooxidation rate k [5, 9]: 0.012 h⁻¹
- O2 kon [6]: 32.4 ^a µM^−1s^−1
- kinase activity [7, 10]: active
- kinase activity [7, 11]: inactive
- Kd [8]: 3.33 µM
- CO koff [8]: 2.43 ± 0.15 ^b s^−1
- CO kon [8]: 0.73 ± 0.071 ^b µM^−1s^−1

B3: DevS: full length wild-type heme sensor kinase DevS of Mycobacterium tuberculosis (protein, UniProt P9WGK3 1-578, looked up)
chain: MTTGGLVDENDGAAMRPLRHTLSQLRLHELLVEVQDRVEQIVEGRDRLDGLVEAMLVVTAGLDLEATLRAIVHSATSLVDARYGAMEVHDRQHRVLHFVYEGIDEETVRRIGHLPKGLGVIGLLIEDPKPLRLDDVSAHPASIGFPPYHPPMRTFLGVPVRVRDESFGTLYLTDKTNGQPFSDDDEVLVQALAAAAGIAVANARLYQQAKARQSWIEATRDIATELLSGTEPATVFRLVAAEALKLTAADAALVAVPVDEDMPAADVGELLVIETVGSAVASIVGRTIPVAGAVLREVFVNGIPRRVDRVDLEGLDELADAGPALLLPLRARGTVAGVVVVLSQGGPGAFTDEQLEMMAAFADQAALAWQLATSQRRMRELDVLTDRDRIARDLHDHVIQRLFAIGLALQGAVPHERNPEVQQRLSDVVDDLQDVIQEIRTTIYDLHGASQGITRLRQRIDAAVAQFADSGLRTSVQFVGPLSVVDSALADQAEAVVREAVSNAVRHAKASTLTVRVKVDDDLCIEVTDNGRGLPDEFTGSGLTNLRQRAEQAGGEFTLASVPGASGTVLRWSAPLSQ
modifications: full-length
- Kd [4]: 0.58 µM
- autooxidation half life ([5]; 0.1 mM Cu2+): less than 2 min
- autooxidation rate k [5, 12]: 0.0049 h⁻¹
- autooxidation t1/2 [5, 12]: 170 h
- decrease of autooxidation rate on tenfold decrease in Cu2+ concentration ([5]; Cu2+ from 100 to 10 µM): over 300 fold
- autooxidation rate k [5, 13]: 0.062 h⁻¹
- autooxidation t1/2 [5, 13]: 11 h
- autooxidation rate k ([5]; CuCl2 0.1 mM, hepes buffer (20 mM), pH 7.5, Chelex 100): 25 h⁻¹
- autooxidation rate k [5, 14]: 0.09 h⁻¹
- autooxidation t1/2 [5, 14]: 7.8 h
- autooxidation rate k [5, 15]: 0.013 h⁻¹
- autooxidation t1/2 [5, 15]: 78 h
- autooxidation rate k [5, 16]: 0.012 h⁻¹
- autooxidation t1/2 [5, 16]: 59 h
- autooxidation rate k [5, 17]: 0.010 h⁻¹
- autooxidation t1/2 [5, 17]: 96 h
- autooxidation rate k ([5]; hepes 20 mM, pH 7.5, pretreated with Chelex 100, no added cation): 0.0033 h⁻¹
- autooxidation half-lives ([5]; in the absence of Fe3+ and Cu2+): greater than one day
- autooxidation rates ([5]; in the presence of K+, Na+, Mg2+, and Ca2+): 0.005 to 0.02 h⁻¹
- autooxidation rate k [5, 9]: 0.019 h⁻¹
- autooxidation t1/2 [5, 9]: > 30 h
- autooxidation t1/2 ([5]; phosphate buffer (50 mM), pH 7.5, 1 mM EDTA and 200 mM NaCl, listed as Full length wild-type DevS): 73.6 h
- autooxidation half life ([3]; 37 °C, full length DevS from a slow expressing vector): 4 h
- O2 kon [6]: 11.8 ^a µM^−1s^−1
- kinase activity [7, 10]: active
- kinase activity ([7]; ferrous unligated form (5c complex), listed as wild-type DevS): intermediate kinase activity
- kinase activity ([7]; ligand binding: CO and NO): further activates the kinase
- kinase activity [7, 11]: inactive
- kinase activity ([7]; ligand binding: O2 (oxy ferrous 6c species), listed as wild-type DevS): completely inactivates it
- Kd [8]: 8.29 µM
- CO koff [8]: 2.57 ± 0.40 ^b s^−1
- CO kon [8]: 0.31 ± 0.031 ^b µM^−1s^−1

B4: EcDos: Escherichia coli Dos, heme-regulated phosphodiesterase (protein, UniProt P76129 1-799, looked up)
Oxygen sensor protein DosP: MKLTDADNAADGIFFPALEQNMMGAVLINENDEVMFFNPAAEKLWGYKREEVIGNNIDMLIPRDLRPAHPEYIRHNREGGKARVEGMSRELQLEKKDGSKIWTRFALSKVSAEGKVYYLALVRDASVEMAQKEQTRQLIIAVDHLDRPVIVLDPERHIVQCNRAFTEMFGYCISEASGMQPDTLLNIPEFPADNRIRLQQLLWKTARDQDEFLLLTRTGEKIWIKASISPVYDVLAHLQNLVMTFSDITEERQIRQLEGNILAAMCSSPPFHEMGEIICRNIESVLNESHVSLFALRNGMPIHWASSSHGAEIQNAQSWSATIRQRDGAPAGILQIKTSSGAETSAFIERVADISQHMAALALEQEKSRQHIEQLIQFDPMTGLPNRNNLHNYLDDLVDKAVSPVVYLIGVDHIQDVIDSLGYAWADQALLEVVNRFREKLKPDQYLCRIEGTQFVLVSLENDVSNITQIADELRNVVSKPIMIDDKPFPLTLSIGISYDLGKNRDYLLSTAHNAMDYIRKNGGNGWQFFSPAMNEMVKERLVLGAALKEAISNNQLKLVYQPQIFAETGELYGIEALARWHDPLHGHVPPSRFIPLAEEIGEIENIGRWVIAEACRQLAEWRSQNIHIPALSVNLSALHFRSNQLPNQVSDAMHAWGIDGHQLTVEITESMMMEHDTEIFKRIQILRDMGVGLSVDDFGTGFSGLSRLVSLPVTEIKIDKSFVDRCLTEKRILALLEAITSIGQSLNLTVVAEGVETKEQFEMLRKIHCRVIQGYFFSRPLPAEEIPGWMSSVLPLKI
- autooxidation rate k [3]: 0.7 h⁻¹
- autooxidation t1/2 [3]: 1 h

B5: Bovine Mb: bovine myoglobin (protein, UniProt P02192 2-154, looked up)
Myoglobin: GLSDGEWQLVLNAWGKVEADVAGHGQEVLIRLFTGHPETLEKFDKFKHLKTEAEMKASEDLKKHGNTVLTALGGILKKKGHHEAEVKHLAESHANKHKIPVKYLEFISDAIIHVLHAKHPSDFGADAQAAMSKALELFRNDMAAQYKVLGFHG
- autooxidation t1/2 ([3]; pH 9, 25 °C): 63 h
